According to patent US20160145332A1 (MONASH UNIVERSITY, published 2016):

Assays:
[1] = target: T1, Peptide 3 of hIL-21 (P3, 30aa) (human); assay: ELISA: Peptide 3 coated on the plate, biotinylated 2P2 alone or spiked with Peptide 3, Streptavidin-HRP, TMB, A450
T1 peptide: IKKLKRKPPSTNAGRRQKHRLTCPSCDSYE

human IL-21 [2] = target: T2, human IL-21 (human, UniProt Q9HBE4 25-162, limits assumed); assay: SPR (Bio-Rad XPR36), stated average of n=5 measurements; stated final affinity, average of n=5 (table 6)
T2 construct: also called hIL-21; full length hIL-21
Experimental: (§1) Surface Plasma Resonance binding kinetics assay were performed on a Bio-rad XPR36 system by the direct amine coupling method. Briefly, a flow of mixture of EDC [N-ethyl-N′-(3-[…]-propyl)carbodiimide] and NHS (N-hydroxysuccinimide) was used to activate the cell surface of a GLC sensor chip before 25 μg/ml anti-IL-21 mAb was flowed through, then a shot flow of ethanolamine was used to block the remaining active sites on the cell surface. Afterwards, serial diluted solutions of IL-21 from 0 to 40 nM were flown over the cell surface to bind to the immobilized anti-IL-21 mAb molecules. Binding kinetics were performed at 25° C. with a flow rate of 30 μL/min, association time of 3 min and dissociation time of 6 min. The buffer consisted of Hepes, NaCl, tween20, and 1 mg/mL BSA at pH 7.4. The flow cell regeneration buffer between cycles was 15 mM phosphoric acid. Double references were used to process the sensorgrams. The binding curves were globally fit to the 1:1 Langmuir binding model.

human IL-21 [3] = target: T2, human IL-21; assay: cell-based or functional assay
[4] = target: T3, Peptide 5 of hIL-21 (P5, 15aa) (human); assay: ELISA, biotinylated antibody on coated peptide
T3 peptide: PPSTNAGRRQKHRLT
Experimental: (§2) To detect epitopes of 2P2 and 3A3, peptides consisting of different regions of hIL-21 were synthesized commercially and coated on an ELISA plate, followed by blocking of non-specific binding sites with 3% BSA in PBS. Biotinylated 2P2 or 3A3 were then added to the wells and developed with Streptavidin-HRP and TMB substrates.
(§3) An ELISA assay was used to examine binding between antibodies 2P2 and 3A3 and a Streptavidin-HRP secondary only control to each of the peptides P1 to P5, hIL-21 and OVA peptide. […] Thus, the epitope recognized by antibody 2P2 comprised a minimal sequence of 9 mer to 15 mer, with the core sequence being […] (SEQ ID NO 23). Binding was stronger with the sequence CPSCD was also present and strongest binding was observed when the sequences IKKLK, CPSCD and […] were present.

[5] = target: T4, Peptide 4 of hIL-21 (P4, 23aa) (human); assay: ELISA, biotinylated antibody on coated peptide
T4 peptide: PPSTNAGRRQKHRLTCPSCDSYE
Experimental: as §2, §3

P1 = target: T5, P1; assay: peptide ELISA: peptide coated on the plate, biotinylated antibody, Streptavidin-HRP, TMB, A450
T5 construct: also called Peptide 1 (P1, 30aa); peptide 1 of hIL-21

P2 = target: T6, P2; assay: as above
T6 construct: also called Peptide 2 (P2, 27aa); peptide 2 of hIL-21
T6 peptide: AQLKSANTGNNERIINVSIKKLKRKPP

mIL21 = mIL21 (Mus musculus, UniProt Q9ES17); assay: ELISA: mouse IL-21 coated on the plate, biotinylated 2P2 alone or spiked with Peptide 3, Streptavidin-HRP, TMB, A450
human IL-21 [6] = target: T2, human IL-21; assay: SPR (Bio-Rad XPR36), average of the five wells of Table 6; mean of the five single KDs, SD 0.74x10^-9
Experimental: as §1

T2 sequence (Q9HBE4 25-162 limits assumed): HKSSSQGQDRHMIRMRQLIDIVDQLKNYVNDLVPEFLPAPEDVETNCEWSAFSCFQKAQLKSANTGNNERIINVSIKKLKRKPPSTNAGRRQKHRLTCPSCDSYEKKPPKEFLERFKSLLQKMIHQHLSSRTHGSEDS
T5 sequence (peptide, as listed by the source): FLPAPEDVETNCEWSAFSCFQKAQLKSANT

B1: monoclonal antibody 2P2 (antibody, V domains shown)
VH: EVQLQQSGADLVRSGASVKLSCTASGFNIKDYYIHWVKQRPEQGLELIGWIDPESGDTEYAPKFQVKATMTADTSSNTAYLQLSSLTSEDTAVYYCNDGSGYWGQGTTLTVSS
VL: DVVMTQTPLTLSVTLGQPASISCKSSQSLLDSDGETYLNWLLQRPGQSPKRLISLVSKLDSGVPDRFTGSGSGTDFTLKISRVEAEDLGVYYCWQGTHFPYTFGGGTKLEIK
notes: It was biotinylated in the ELISA assays and unlabelled, amine-coupled to the chip, in SPR; also called mAb 2P2; mAB 2P2
binding result [1]: binds
Kd (human IL-21 [2]): 3 nM
bioactivity of human IL-21 on Ba/F3-hIL-21R cell proliferation at 10 µg/ml 2P2 (human IL-21 [3]): > 10 fold
hIL-21 bioactivity on human CD8 T cell activation (granzyme B and perforin) (human IL-21 [3]): > 10 fold
hIL-21 mediated human B cell proliferation (CFSE dilution); 5 ng/ml hIL-21 plus 1 µg/ml 2P2 compared with 100 ng/ml hIL-21 (human IL-21 [3]): ~20 fold
binding result [4]: binds
binding result [5]: binds
binding result (P1): no binding
binding result (P2): no binding
binding result (mIL21): no binding
Kd (human IL-21 [6]): 3.33 nM
